# From patent publication US20090312247
# Columns and labels:
# [1] = test system: FLAG-epitope tagged NPRA stably over-expressed in HEK293 cells (HEK-NPRA cells)
# [2] = test system: 5'-FLAG epitope-tagged sNRF^(806-900)
# [3] = test system: full-length NPRA (SEQ ID NO: 2)
# Chain of full-length NPRA (SEQ ID NO: 2) (chain, as listed by the source): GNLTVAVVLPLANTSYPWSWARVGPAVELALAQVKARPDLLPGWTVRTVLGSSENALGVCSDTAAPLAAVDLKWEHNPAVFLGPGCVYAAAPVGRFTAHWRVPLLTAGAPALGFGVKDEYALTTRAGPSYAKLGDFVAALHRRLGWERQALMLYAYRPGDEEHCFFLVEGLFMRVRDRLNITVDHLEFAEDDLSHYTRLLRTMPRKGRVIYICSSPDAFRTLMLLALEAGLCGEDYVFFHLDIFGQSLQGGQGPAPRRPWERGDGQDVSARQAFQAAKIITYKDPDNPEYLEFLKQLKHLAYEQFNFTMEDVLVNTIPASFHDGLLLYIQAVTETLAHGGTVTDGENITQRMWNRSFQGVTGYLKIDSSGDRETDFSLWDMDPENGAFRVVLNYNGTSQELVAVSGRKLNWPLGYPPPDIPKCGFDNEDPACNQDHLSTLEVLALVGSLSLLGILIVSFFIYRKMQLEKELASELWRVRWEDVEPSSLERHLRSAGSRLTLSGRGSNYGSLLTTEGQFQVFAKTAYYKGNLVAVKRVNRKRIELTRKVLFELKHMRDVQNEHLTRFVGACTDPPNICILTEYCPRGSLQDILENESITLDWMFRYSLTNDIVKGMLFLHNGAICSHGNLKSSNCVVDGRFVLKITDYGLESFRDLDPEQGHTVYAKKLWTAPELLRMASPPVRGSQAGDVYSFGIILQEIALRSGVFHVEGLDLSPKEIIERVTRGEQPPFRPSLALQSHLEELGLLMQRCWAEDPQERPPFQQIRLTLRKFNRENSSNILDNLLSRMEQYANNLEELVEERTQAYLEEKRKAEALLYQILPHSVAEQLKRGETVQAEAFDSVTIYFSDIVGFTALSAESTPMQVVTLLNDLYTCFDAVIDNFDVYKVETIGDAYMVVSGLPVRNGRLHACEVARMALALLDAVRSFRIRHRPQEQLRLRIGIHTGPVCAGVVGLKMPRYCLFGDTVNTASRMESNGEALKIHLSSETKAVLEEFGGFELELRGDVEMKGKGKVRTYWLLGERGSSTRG
# Chain of 5'-FLAG epitope-tagged sNRF^(806-900) (chain, as listed by the source): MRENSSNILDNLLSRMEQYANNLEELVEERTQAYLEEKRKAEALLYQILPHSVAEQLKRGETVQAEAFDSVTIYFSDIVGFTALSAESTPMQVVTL
substance,measurement,setting,value
cGMP-dependent protein kinase I (PKG) in HEK-NPRA cells,"ANP-induced phosphorylation of a 137-kD protein ([35S]ATPγS, autoradiography)",[1],"Robust phosphorylation of a 137-kD protein occurred in the NPRA-expressing cells, but not in control cells"
"cGMP-dependent protein kinase I (PKG), endogenous in neonatal rat cardiac fibroblasts",ANP-induced NPRA phosphorylation in cardiac fibroblasts ([35S]ATPγS incorporation),[2],both KT5823 or expressed sNRF^(806-900) protein reduced ANP-induced NPRA phosphorylation to control levels
recombinant PKG,"phosphorylation ([35S]ATPγS incorporation, autoradiography of Cos7 membrane lysates)",[3],SDS page gels demonstrated a phosphorylated 137 kD protein that corresponded to full-length NPRA
